In patent US20210346432A1 (Memorial Sloan Kettering, published 2021) one finds A450 and Kd data, which are given here for three molecules.

No end group written: not given here. *: point of attachment. Biotin = O=C1N[C@H]2[C@H](CS[C@H]2CCCCC(=O)*)N1

The target in one test is T1, ET140-p4 (human).
T1 construct: also called peptide 4
T1 peptide: Biotin-SGSGAGQCSQNEYFDSLLH
Kind of test: peptide ELISA on streptavidin plate, antibody 1 ug/mL. Here is the method: (§1) The peptides were coated onto Streptavidin plates at 2 ug/mL in PBST (PBS+0.05% Tween-20). After washing and blocking with 3% BSA. […] “mIgG1” used in all Examples represents that the variable region is fully human and the Fc part is mouse IgG1. Then HRP anti-mouse IgG detection antibody was added to each well. Finally, the color was developed using TMB substrate. A450 was recorded for data analysis.
On the technique in general: ELISA stands for enzyme-linked immunosorbent assay.

The target of the next test is T2, ET140-p5 (human).
T2 construct: also called peptide 5
T2 peptide: Biotin-SGSGGQCSQNEYFDSLLHA
Described as above. On the procedure:
as §1

Another test deals with T3, ET140-p6 (human, cysteine pairing not given here).
T3 construct: also called peptide 6
T3 peptide: Biotin-SGSGQCSQNEYFDSLLHAC
The test is described as above. Here is the method:
as §1

A further test has as its target T4, ET140-p8 (human).
T4 construct: also called peptide 8
T4 peptide: Biotin-SGSGSQNEYFDSLLHACIP
Described as above. On the procedure: as §1

A further test deals with T5, ET140-p11 (human, cysteine pairing not given here).
T5 construct: also called peptide 11; ET140-pll
T5 peptide: Biotin-SGSGEYFDSLLHACIPCQL
The description is as above. Here is the method: as §1

The target in the next test is T6, ET140-p12 (human, cysteine pairing not given here).
T6 construct: also called peptide 12
T6 peptide: Biotin-SGSGYFDSLLHACIPCQLR
Described as above. On the procedure: as §1

Another test deals with T7, ET140-p13 (human, cysteine pairing not given here).
T7 construct: also called peptide 13
T7 peptide: Biotin-SGSGFDSLLHACIPCQLRC
The test is described as above. On the procedure: as §1

The target in a further test is T8, ET140-p15 (human, cysteine pairing not given here).
T8 construct: also called peptide 15
T8 peptide: Biotin-SGSGSLLHACIPCQLRCSS
The description is as above. Here is the method:
as §1

The next test addresses T9, ET140-p17 (human, cysteine pairing not given here).
T9 construct: also called peptide 17
T9 peptide: Biotin-SGSGLHACIPCQLRCSSNT
Described as above. On the procedure: as §1

A further test deals with T10, ET140-p18 (human, cysteine pairing not given here).
T10 construct: also called peptide 18
T10 peptide: Biotin-SGSGHACIPCQLRCSSNTP
The description is as above. On the procedure: as §1

The target of a further test is T11, ET140-p20 (human, cysteine pairing not given here).
T11 construct: also called peptide 20
T11 peptide: Biotin-SGSGCIPCQLRCSSNTPPL
The test is described as above. On the procedure:
as §1

For another test, the target named is T12, ET140-p27 (human, cysteine pairing not given here).
T12 construct: also called peptide 27
T12 peptide: Biotin-SGSGCSSNTPPLTCQRYCN
The test is described as above. Here is the method:
as §1

Another test addresses T13, ET140-p28 (human, cysteine pairing not given here).
T13 construct: also called peptide 28
T13 peptide: Biotin-SGSGSSNTPPLTCQRYCNA
The description is as above. On the procedure:
as §1

The next test has as its target T14, ET140-p29 (human, cysteine pairing not given here).
T14 construct: also called peptide 29
T14 peptide: Biotin-SGSGSNTPPLTCQRYCNAS
Described as above. On the procedure: as §1

The target of the next test is T15, ET140-p30 (human, cysteine pairing not given here).
T15 construct: also called peptide 30
T15 peptide: Biotin-SGSGNTPPLTCQRYCNASV
The description is as above. Here is the method: as §1

In the next test the target is T16, ET140-p31 (human, cysteine pairing not given here).
T16 construct: also called peptide 31
T16 peptide: Biotin-SGSGTPPLTCQRYCNASVT
The test is described as above. On the procedure:
as §1

Another test deals with T17, ET140-p32 (human, cysteine pairing not given here).
T17 construct: also called peptide 32
T17 peptide: Biotin-SGSGPPLTCQRYCNASVTN
The test is described as above. Here is the method:
as §1

The target in the next test is T18, ET140-p33 (human, cysteine pairing not given here).
T18 construct: also called peptide 33
T18 peptide: Biotin-SGSGPLTCQRYCNASVTNS
The description is as above. Here is the method:
as §1

For a further test, the target named is T19, ET140-p34 (human, cysteine pairing not given here).
T19 construct: also called peptide 34
T19 peptide: Biotin-SGSGLTCQRYCNASVTNSV
The test is described as above. Here is the method: as §1

The target of a further test is T20, ET140-p35 (human, cysteine pairing not given here).
T20 construct: also called peptide 35
T20 peptide: Biotin-SGSGTCQRYCNASVTNSVK
The test is described as above. Here is the method: as §1

The target in a further test is T21, ET140-p37 (human).
T21 construct: also called peptide 37
T21 peptide: Biotin-SGSGQRYCNASVTNSVKGT
Described as above. On the procedure:
as §1

For the next test, the target named is T22, ET140-p38 (human).
T22 construct: also called peptide 38
T22 peptide: Biotin-SGSGRYCNASVTNSVKGTN
The test is described as above. Here is the method:
as §1

In test [1] the target is T23, biotinylated BCMA-Fc protein (human, UniProt Q02223 1-54, biotinylated (site not stated)).
T23 construct: also called BCMA recombinant antigen; not shown: Fc part
T23 sequence: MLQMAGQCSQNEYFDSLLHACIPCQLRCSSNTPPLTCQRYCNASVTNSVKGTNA
In words: SPR (BIAcore X100), biotinylated BCMA-Fc captured on Sensor Chip CAP, antibody injected, 1:1 Langmuir fit. On the procedure: In brief, 50 μg/mL of modified streptavidin was immobilized onto a Sensor Chip CAP by flowing the Biotin CAPture Reagent through the flow cells at 2 μL/min for 5 minutes. 10 ug/mL biotinylated BCMA-Fc protein was loaded onto the flow cell at a rate of 30 μL/min for 3 minutes. Following the standard protocol for kinetics, a series of injection of ESK1 was performed between 0.6 and 15 μg/mL, each step consisting of a 3 minute injection at 30 μL/min and 3 minute disassociation. […] Kinetic constants were derived by the global fitting (1:1 Langmuir binding model) using BIAcore ×100 Evaluation Software (Version 2.0.1).
Background: SPR reads the build-up and loss of mass on a sensor chip optically.

B1: ET140-153 mIgG1 (antibody, V domains shown)
VH: QVQLVQSGAEVKKPGSSVKVSCKASGGTFSSYAISWVRQAPGQGLEWMGRIIPILGIANYAQKFQGRVTITADKSTSTAYMELSSLRSEDTAVYYCARGGYYSHDMWSEDWGQGTLVTVSS
VL: LPVLTQPPSASGTPGQRVTISCSGRSSNIGSNSVNWYRQLPGAAPKLLIYSNNQRPPGVPVRFSGSKSGTSASLAISGLQSEDEATYYCATWDDNLNVHYVFGTGTKVTVLG
notes: also called ET140-3 mIgG1; ET140-3
Take B1: the A450 worked out at 0.094 in the test with ET140-p4; 0.08 with ET140-p5; 0.127 with ET140-p6; 0.178 with ET140-p8; 1.07 with ET140-p11; 2.08 in the test with ET140-p12. The A450 was found to be 1.03 with ET140-p13; 0.328 in the test with ET140-p15; 0.155 with ET140-p17; 0.097 with ET140-p18; 0.087 with ET140-p20; 0.12 in the test with ET140-p27. The A450 turned out to be 0.109 in the test with ET140-p28; 0.109 with ET140-p29; 0.111 in the test with ET140-p30; 0.107 with ET140-p31; 0.099 with ET140-p32; 0.116 with ET140-p33. The A450 was 0.099 with ET140-p34, 0.072 in the test with ET140-p35, 0.085 with ET140-p37 and 0.08 with ET140-p38. Moreover, binding in [1] was characterised by a dissociation constant (Kd) of 1.2 nM.

B2: ET140-174 mIgG1 (antibody, V domains shown)
VH: EVQLVQSGAEVKKPGESLKISCKGSGYSFTSYWIGWVRQMPGKGLEWMGIIYPGDSDTRYSPSFQGHVTISADKSISTAYLQWSSLKASDTAMYYCARYSGSFDNWGQGTLVTVSS
VL: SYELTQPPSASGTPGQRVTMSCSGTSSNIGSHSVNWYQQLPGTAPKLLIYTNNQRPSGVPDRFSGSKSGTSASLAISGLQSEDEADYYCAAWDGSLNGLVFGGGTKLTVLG
notes: also called ET140-24 mIgG1; ET140-24
As to B2, the A450 with ET140-p4 was 0.081; with ET140-p5, 0.073; with ET140-p6, 0.105; with ET140-p8, 0.083; with ET140-p11, 0.094; in the test with ET140-p12, 0.137. Besides, the A450 was 0.143 with ET140-p13; 0.268 with ET140-p15; 0.15 with ET140-p17; 0.099 in the test with ET140-p18; 0.083 in the test with ET140-p20; 0.1 with ET140-p27. Also, the A450 in the test with ET140-p28 turned out to be 0.101; in the test with ET140-p29, 0.09; in the test with ET140-p30, 0.083; with ET140-p31, 0.085; with ET140-p32, 0.092; with ET140-p33, 0.083. The A450 with ET140-p34 worked out at 0.069; with ET140-p35, 0.076; in the test with ET140-p37 it was 0.086; with ET140-p38, 0.071. The molecule also came in with a Kd in test [1] of 4.8 nM.

B3: ET140-204 mIgG1 (antibody, V domains shown)
VH: EVQLVQSGAEMKKPGASLKLSCKASGYTFIDYYVYWMRQAPGQGLESMGWINPNSGGTNYAQKFQGRVTMTRDTSISTAYMELSRLRSDDTAMYYCARSQRDGYMDYWGQGTLVTVSS
VL: QSALTQPASVSASPGQSIAISCTGTSSDVGWYQQHPGKAPKLMIYEDSKRPSGVSNRFSGSKSGNTASLTISGLQAEDEADYYCSSNTRSSTLVFGGGTKLTVLG
notes: also called ET140-54 mIgG1; ET140-54
As to B3, the A450 with ET140-p4 is 0.073; with ET140-p5 it was 0.069; with ET140-p6, 0.095; with ET140-p8, 0.073; with ET140-p11, 0.085; with ET140-p12, 0.139. Further, the A450 was 0.138 in the test with ET140-p13; 0.276 with ET140-p15; 0.146 with ET140-p17; 0.105 with ET140-p18; 0.081 in the test with ET140-p20; 0.103 in the test with ET140-p27. The A450 amounted to 0.093 with ET140-p28; 0.083 with ET140-p29; 0.08 with ET140-p30; 0.08 with ET140-p31; 0.092 with ET140-p32; 0.084 with ET140-p33. The A450 with ET140-p34 is 0.07; with ET140-p35, 0.071; with ET140-p37, 0.083; with ET140-p38, 0.069. This molecule returned a Kd in test [1] of 8.1 nM.

A word on the Kd: it is the constant that tells how readily two partners part at equilibrium. Read a high Kd as weaker binding.
